From paper PMC12412624, “Engineered Cas12j‐8 is a Versatile Platform for Multiplexed Genome Modulation in Mammalian Cells”
Where a chain is given by its changes, count along the chain named.

How the values were obtained:
[1] = system: T1, dCas12j-8 D523R D523R;D369A;E567A;D658A (bacteriophage (metagenome)); details: HEK293T cells; panel 1c (compare within a panel only); scale: mean GFP / mean GFP of wild type, printed, no background subtraction
T1 sequence: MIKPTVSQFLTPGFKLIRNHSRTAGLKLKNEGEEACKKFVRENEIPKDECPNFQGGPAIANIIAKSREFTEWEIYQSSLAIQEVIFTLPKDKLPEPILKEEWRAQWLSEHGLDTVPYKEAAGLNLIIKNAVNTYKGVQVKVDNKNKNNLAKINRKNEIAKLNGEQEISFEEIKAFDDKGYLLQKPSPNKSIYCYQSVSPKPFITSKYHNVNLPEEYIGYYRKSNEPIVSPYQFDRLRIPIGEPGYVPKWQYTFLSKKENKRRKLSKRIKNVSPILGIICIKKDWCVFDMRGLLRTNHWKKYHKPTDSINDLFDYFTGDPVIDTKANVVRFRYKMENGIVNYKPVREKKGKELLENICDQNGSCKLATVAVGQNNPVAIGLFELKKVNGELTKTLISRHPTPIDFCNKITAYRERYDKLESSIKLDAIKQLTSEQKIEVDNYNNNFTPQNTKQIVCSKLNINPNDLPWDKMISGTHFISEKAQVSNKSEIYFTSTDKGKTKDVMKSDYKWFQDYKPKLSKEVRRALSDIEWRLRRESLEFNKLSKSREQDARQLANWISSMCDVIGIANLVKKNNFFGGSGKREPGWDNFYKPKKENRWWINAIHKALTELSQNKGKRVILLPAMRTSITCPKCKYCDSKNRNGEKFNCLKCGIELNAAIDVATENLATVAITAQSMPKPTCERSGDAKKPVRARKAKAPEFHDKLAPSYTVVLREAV

[2] = system: T2, dCas12j-8 E258R+D313R+D495R+E547R E258R;D313R;D495R;E547R;D369A;E567A;D658A (bacteriophage (metagenome)); details: HEK293T cells; panel 1e (compare within a panel only); scale: mean GFP / mean GFP of wild type, printed, no background subtraction
T2 sequence: T1 sequence with E258R, D313R, D495R, R523D, E547R

[3] = system: T3, dCas12j-8 E547R E547R;D369A;E567A;D658A (bacteriophage (metagenome)); details: HEK293T cells; panel 1c (compare within a panel only); scale: mean GFP / mean GFP of wild type, printed, no background subtraction
T3 sequence: T1 sequence with R523D, E547R

Q: With “CUUUCAAGACUAAUAGAUUGCUCCUUACGAGGAGACACUCCCUAUCAGUGAUAGAG / TTNACTCCCTATCAGTGATAGAG / CTCTATCACTGATAGGGAGTNAA [TetO]” as the sequence, how does the binding signal [1] read?
A: 1.32

Q: What about the binding signal [2] of the same sequence?
A: 4.81

Q: What about the binding signal [3] of the same sequence?
A: 1.22
